Source: patent US20230348616A1 (MIE UNIVERSITY, published 2023)

Assays:
[1] = target: T1, HLA-A*0201/β2-microglobulin/NY-ESO peptide complex (human, biotinylated with E. coli biotin ligase at the added recognition sequence (biotinylated form used in the ELISA)); experiment: SPR (Biacore T200), scFv captured by anti-His antibody, HLA/NY-ESO as analyte, single cycle kinetics
T1 construct: also called HLA/NY-ESO; HLA-A2/NY-ESO
Description: With the use of Biacore T200, the anti-HLA/NY-ESO scFv was captured as a ligand to the immobilized anti-His antibody, and the antigen was assayed as an analyte. As the antigen, HLA/NY-ESO prepared in 1)-1 was used. The anti-His antibody (His Capture kit, Cytiva) was immobilized on Sensor Chip CM5 (Cytiva) in accordance with the instructions of the kit. The anti-HLA/NY-ESO scFv constructs diluted to 0.5 μg/ml in HBS-EP+(Cytiva) to be evaluated were brought into contact therewith at 10 μl/min for 60 seconds for immobilization. Thereafter, the samples were added to the HLA/NY-ESO analytes diluted to various levels with HBS-EP+ at a flow rate of 30 μl/min for 120 seconds and dissociation was assayed for 600 seconds.

[2] = target: T2, HLA-A2 / homologous peptide DOLPP1 complex on T2 cells (human); experiment: flow cytometry, peptide-pulsed T2 cells
T2 construct: whole, on cells; also called T2 cells supplemented with homologous peptide DOLPP1

[3] = target: T3, HLA-A2 / homologous peptide IL20RB complex on T2 cells (human); experiment: flow cytometry, peptide-pulsed T2 cells
T3 construct: whole, on cells; also called T2 cells supplemented with homologous peptide IL20RB

[4] = target: T4, HLA-A2 / homologous peptide PRKD2 complex on T2 cells (human); experiment: flow cytometry, peptide-pulsed T2 cells
T4 construct: whole, on cells; also called T2 cells supplemented with homologous peptide PRKD2

[5] = target: T5, HLA-A2 / homologous peptide CD163 complex on T2 cells (human); experiment: flow cytometry, peptide-pulsed T2 cells
T5 construct: whole, on cells; also called T2 cells supplemented with homologous peptide CD163

[6] = target: T6, HLA-A2 / homologous peptide P2RY8 complex on T2 cells (human); experiment: flow cytometry, peptide-pulsed T2 cells
T6 construct: whole, on cells; also called T2 cells supplemented with homologous peptide P2RY8

gp100 [7] = target: T7, gp100 (human); experiment: flow cytometry on peptide-pulsed T2 cells, scFv 100 nM
T7 construct: cell surface;cell surface complex; also called HLA-A2 / gp100 peptide complex on T2 cells
Description: (§1) The resultant was washed two times in the AIM-V medium containing 20% FBS, the concentration thereof was adjusted to an adequate level with PBS containing 5% FBS, the LIVE/DEAD Fixable Dead Cell Stain Kit (Thermo Fisher Scientific) was added thereto, and the resultant was allowed to stand at 4° C. for 30 minutes. The cells were washed 2 times in PBS containing 5% FBS, the washed cells were divided into two groups, the cells in PBS containing 5% FBS were seeded on a 96-well U-bottom microplate at 10⁵ cells/well, and the plate was subjected to centrifugation, followed by removal of the supernatant. Anti-HLA/NY-ESO scFv diluted to 100 nM with PBS containing 5% FBS was added at 25 μl/well to one of the divided cells, and the resultant was allowed to stand at 4° C. for 30 minutes. The cells were washed 2 times in PBS containing 5% FBS, Penta-His Alexa Fluor488 (QIAGEN) diluted in PBS containing 5% FBS was added at 25 μl/well, and the resultant was allowed to stand at 4° C. for 30 minutes. The cells were washed 2 times in PBS containing 5% FBS, Anti-mouse-IgG Alexa Fluor488 (Thermo Fisher Scientific) diluted in PBS containing 5% FBS was added at 25 μl/well, and the resultant was allowed to stand at 4° C. for 30 minutes. The cells were washed 2 times in PBS containing 5% FBS, immobilized with Mildform 10 N (FUJIFILM Wako Pure Chemical Corporation) overnight, and resuspended in PBS containing 5% FBS. […] The cells were washed 2 times in PBS containing 5% FBS, immobilized with Mildform 10 N (FUJIFILM Wako Pure Chemical Corporation) overnight, and resuspended in PBS containing 5% FBS. The cell suspensions were subjected to detection using a flow cytometer (CantoII, Becton Dickinson). […] The standardized gMFI indicating the binding affinity of each scFv standardized with the amount of the HLA/peptide complex on the T2 cells was determined in accordance with the following equation.

[8] = target: T8, HLA-A2/NY-ESO peptide complex presented on cells (human); experiment: as above
T8 construct: whole, on cells; also called HLA/NY-ESO; T2 cells supplemented with the NY-ESO peptide
Description: as §1

gp100 [9] = target: T7, gp100; experiment: as above; remark: listed apart in the source
Description: (§2) The cells were washed 2 times in PBS containing 5% FBS, immobilized with Mildform 10 N (FUJIFILM Wako Pure Chemical Corporation) overnight, and resuspended in PBS containing 5% FBS. The cell suspensions were subjected to detection using a flow cytometer (CantoII, Becton Dickinson). […] The standardized gMFI indicating the binding affinity of each scFv standardized with the amount of the HLA/peptide complex on the T2 cells was determined in accordance with the following equation.
(§3) The 9-mer peptide shown in FIG. 2A was selected as a homologous peptide for evaluation of binding specificity of anti-HLA/NY-ESO scFv. […] The standardized gMFI indicating the binding affinity of each scFv standardized with the amount of the HLA/peptide complex on the T2 cells was determined in accordance with the following equation.

[10] = target: T8, HLA-A2/NY-ESO peptide complex presented …; experiment: as above; remark: listed apart in the source
Description: as §2, §3

[11] = target: T2, HLA-A2 / homologous peptide DOLPP1 …; experiment: as above
Description: as §2, §3

[12] = target: T3, HLA-A2 / homologous peptide IL20RB …; experiment: as above
Description: as §2, §3

[13] = target: T4, HLA-A2 / homologous peptide PRKD2 …; experiment: as above
Description: as §2, §3

[14] = target: T5, HLA-A2 / homologous peptide CD163 …; experiment: as above
Description: as §2, §3

[15] = target: T6, HLA-A2 / homologous peptide P2RY8 …; experiment: as above
Description: as §2, §3

[16] = target: T1, HLA-A*0201/β2-microglobulin/NY-ESO …; experiment: SPR (Biacore T200), scFv captured by anti-His antibody, HLA/NY-ESO as analyte, single cycle kinetics; remark: listed apart in the source
Description: With the use of Biacore T200, anti-HLA/NY-ESO scFv was captured as a ligand by the immobilized anti-His antibody, and the antigen was assayed as an analyte. As the antigen, HLA/NY-ESO prepared in 1)-1 was used. The anti-His antibody (His Capture kit, GE Healthcare) was immobilized on Sensor Chip CM5 (GE Healthcare) in accordance with the instructions of the kit. The anti-HLA/NY-ESO scFv constructs diluted to 0.5 μg/ml in HBS-EP+ (GE Healthcare) to be evaluated were brought into contact therewith at 10 μl/min for 60 seconds for immobilization. Thereafter, the samples were added to the HLA/NY-ESO analytes diluted to various levels with HBS-EP+ at a flow rate of 30 μl/min for 120 seconds and dissociation was assayed for 600 seconds.

[17] = target: T8, HLA-A2/NY-ESO peptide complex presented …; experiment: cell-based or functional assay
[18] = target: T8, HLA-A2/NY-ESO peptide complex presented …; experiment: cell-based or functional assay; remark: listed apart in the source
[19] = target: T1, HLA-A*0201/β2-microglobulin/NY-ESO …; experiment: SPR (Biacore T200), bispecific captured by anti-human IgG (Fc) antibody, HLA/NY-ESO as analyte, single cycle kinetics
Description: With the use of Biacore T200, various Fc-conjugated anti-HLA/NY-ESO-anti-CD3 bispecific molecules were captured as ligands to the immobilized anti-human IgG (Fc) antibody, and the antigen was assayed as an analyte. […] The anti-human IgG (Fc) antibody (Human antibody Capture kit, GE Healthcare) was immobilized on Sensor Chip CM5 (GE Healthcare) in accordance with the instructions of the kit. The Fc-conjugated anti-HLA/NY-ESO-anti-CD3 bispecific molecules diluted to 0.5 g/ml in HBS-EP+(GE Healthcare) to be evaluated were brought into contact therewith at 10 μl/min for 60 seconds for immobilization. Thereafter, the samples were added to the HLA/NY-ESO analytes diluted to various levels with HBS-EP+ at a flow rate of 30 μl/min for 120 seconds and dissociation was assayed for 600 seconds.

1F = target: T9, 1F (human); experiment: flow cytometry, CD3e knockout T2 cells pulsed with 50 µM peptide, antibody at 100 nM, PE anti-human IgG; gMFI standardized to the HLA/peptide amount; DMSO-only cells 1.15
T9 construct: cell surface; also called HLA-A2 / point-mutant NY-ESO peptide 1F complex on CD3e knockout T2 cells
Description: (§4) The cells were washed 2 times in PBS containing 5% FBS, PE conjugated F(ab′)2 Fragment Anti-Human IgG (Jackson Immuno Research Laboratories) diluted with PBS containing 5% FBS was added at 25 μl/well, and the resultant was allowed to stand at 4° C. for 30 minutes. The cells were washed 2 times in PBS containing 5% FBS, immobilized with Mildform 10 N (FUJIFILM Wako Pure Chemical Corporation) overnight, and resuspended in PBS containing 5% FBS. […] The cells were washed 2 times in PBS containing 5% FBS, immobilized with Mildform 10 N (FUJIFILM Wako Pure Chemical Corporation) overnight, and resuspended in PBS containing 5% FBS. The cell suspensions were subjected to detection using a flow cytometer (CantoII, Becton Dickinson). […] The standardized gMFI indicating the binding affinity of each Fc-conjugated anti-HLA-A2/NY-ESO-anti-CD3 bispecific molecule standardized with the amount of the HLA/peptide complex on the CD3e knockout T2 cells was determined in accordance with the following equation.

gp100 [20] = target: T10, gp100 (human); experiment: as above
T10 construct: cell surface; unrelated control peptide; also called HLA-A2 / gp100 peptide complex on CD3e knockout T2 cells
Description: as §4

[21] = target: T8, HLA-A2/NY-ESO peptide complex presented …; experiment: as above
Description: as §4

gp100 [22] = target: T10, gp100; experiment: flow cytometry, CD3e knockout T2 cells pulsed with 50 µM peptide, antibody at 100 nM, PE anti-human IgG; gMFI standardized to the HLA/peptide amount; DMSO-only cells 1.19
Excerpt: (§5) The cells were washed 2 times in PBS containing 5% FBS, immobilized with Mildform 10 N (FUJIFILM Wako Pure Chemical Corporation) overnight, and resuspended in PBS containing 5% FBS. The cell suspensions were subjected to detection using a flow cytometer (CantoII, Becton Dickinson). […] The standardized gMFI indicating the binding affinity of each Fc-conjugated anti-HLA-A2/NY-ESO-anti-CD3 bispecific molecule standardized with the amount of the HLA/peptide complex on the CD3e knockout T2 cells was determined in accordance with the following equation.
(§6) The standardized gMFI indicating the binding affinity of each Fc-conjugated anti-HLA-A2/NY-ESO-anti-CD3 bispecific molecule standardized with the amount of the HLA/peptide complex on the CD3e knockout T2 cells was determined in accordance with the following equation.

[23] = target: T8, HLA-A2/NY-ESO peptide complex presented …; experiment: as above
Excerpt: as §5, §6

[24] = target: T2, HLA-A2 / homologous peptide DOLPP1 …; experiment: as above
Excerpt: as §5, §6

[25] = target: T3, HLA-A2 / homologous peptide IL20RB …; experiment: as above
Excerpt: as §5, §6

[26] = target: T4, HLA-A2 / homologous peptide PRKD2 …; experiment: as above
Excerpt: as §5, §6

[27] = target: T5, HLA-A2 / homologous peptide CD163 …; experiment: as above
Excerpt: as §5, §6

[28] = target: T6, HLA-A2 / homologous peptide P2RY8 …; experiment: as above
Excerpt: as §5, §6

[29] = target: T1, HLA-A*0201/β2-microglobulin/NY-ESO …; experiment: ELISA, biotinylated HLA/NY-ESO on NeutrAvidin, scFv from E. coli culture, anti-FLAG-HRP
Description: The plate was washed 3 times with ELISA buffer, blocked with Blocker Casein (Thermo Fisher Scientific), and then washed 3 times with ELISA buffer. Thereafter, a culture solution of scFv-expressing E. coli was added, and the reaction was allowed to proceed at room temperature for 2 hours. After the resultant was washed 3 times with ELISA buffer, 50 μl of the horseradish peroxidase (HRP)-labeled anti-FLAG antibody (Sigma-Aldrich) diluted to 5,000-fold with ELISA buffer was added, and the reaction was allowed to proceed at room temperature for 1 hour.

B1: NYC-0008 (scFv)
scFv: GEVQLVESGGGVVQPGGSLRLSCEASGFIFDDYAMHWVRQAPGKGLEWVSLISGDGDIIYYADSVKGRFTISRDNSKNSLYLQMNSLIIEDTALYYCAKDWVFGVVMTHYWYFGLDVWGQGTTVTVSSGGGGSGGGGSGGGGSDIQMTQSPSSLSASEGDRVTITCRASQSISTYLNWYQQKPGKAPKLLIYGASSLQSGVPSRFSGSGSGTDFTLTISSLQPEDFATYYCQQSYSTPPITFGQGTKVEIKGAAAGAGGDYKDDDDKGAAAHHHHHH
notes: Captured by anti-His antibody in SPR; also called scFv of mAb28105P
[1]
  Kd: 7.9 nM

B2: NYA-2048 (scFv)
scFv: GQVQLVESGGGVVQPGRSLRLSCAASGFSIRSYDMHWVRQAPGKGLEWVATISYDGSQKYYADSVKGRFTISRDNSKNTLYLQMSSLRAEDTAVYHCARGSSGHYEAFDIWGQGTLVTVSSGGGGSGGGGSGGGGSQSVLTQPPSASGTPGQRVTISCSGSSSNIGNWYVSWYQQLPGTAPKLLIYDNNKRPSGVPDRFSGSKSGTSASLAISGLQSEDEADYYCGTWDSSLSAPWVFGGGTKLTVLGAAAGAGGDYKDDDDKGAAAHHHHHH
notes: also called NYA-2048 tag adduct
[2]
  binding result: no binding (tested: 100 nM)
[3]
  binding result: no binding (tested: 100 nM)
[4]
  binding result: no binding (tested: 100 nM)
[5]
  binding result: no binding (tested: 100 nM)
[6]
  binding result: no binding (tested: 100 nM)
gp100 [7]
  standardized gMFI: 0.41
[8]
  standardized gMFI: 6.58
gp100 [9]
  standardized gMFI: 0.34
[10]
  standardized gMFI: 8.82
[11]
  standardized gMFI: 0.44
[12]
  standardized gMFI: 0.48
[13]
  standardized gMFI: 0.35
[14]
  standardized gMFI: 0.52
[15]
  standardized gMFI: 0.69
[16]
  Kd: 6.3 nM

B3: NYZ-1010 (bispecific antibody, human IgG1, lambda, L234A L235A)
chain 1: not shown
chain 2: not shown
light: NFMLTQPSSVSGVPGQRVTISCTGNTGNIGSNYVNWYQQLPGTAPKLLIYRDDKRPSGVPDRFSGSKSGTSASLAITGFQAEDEADYYCQSYSSGFIFGGGTKLTVLGQPKAAPSVTLFPPSSEELQANKATLVCLISDFYPGAVTVAWKADSSPVKAGVETTTPSKQSNNKYAASSYLSLTPEQWKSHRSYSCQVTHEGSTVEKTVAPTECS
[17]
  EC50 of cytotoxicity on U266B1 cells (51Cr release, human PBMC effectors): 0.96 nM
[18]
  EC50 of cytotoxicity on NCI-H1703 cells (51Cr release, human PBMC effectors): 2.56 nM
[19]
  Kd: 1.9 nM
1F
  standardized gMFI: 0.86
gp100 [20]
  standardized gMFI: 0.53
[21]
  standardized gMFI: 43.3
gp100 [22]
  standardized gMFI: 0.54
[23]
  standardized gMFI: 44.4
[24]
  standardized gMFI: 0.7
[25]
  standardized gMFI: 0.88
[26]
  standardized gMFI: 0.54
[27]
  standardized gMFI: 0.67
[28]
  standardized gMFI: 0.95

B4: NY-R119 (scFv)
scFv: EVQLVESGGGVVQPGRSLTPSCSASGFSIRSYDIHWVRQAPGKGLEWVATISYDGSQKYFADSVKGRFTIFRDESENMVYLQMSGLRVEDTAVYHCARGSSGHYEAFDIWGQGTMVTVSSGGGGSGGGGSGGGGSQSVLTQPPSVSAAPGQKVTISCSGSSSNIGNNYVSWYQQLPGTAPKLLIYDNNKRPSGIPDRFSGSKSGTSATLGITGLQTGDEADYYCGTWDSSLSAPWVFGGGTKVTVL
notes: Expressed in E. coli, culture solution used in the ELISA; also called ELISA-positive clone NY-R119; not shown: FLAG tag and His tag at the carboxyl terminus from the E. coli expression vector
[29]
  binding result: binds
